Values belong to the binder of their own block, whether it stands above or below them.
Key:
[1] = molecular target: T1, His-tagged human GFRAL (recombinant soluble GFRAL protein, R&D catalogue no. 9647-GR-050) (human, UniProt Q6UXV0 19-351); experiment: SPR sandwich assay: row antibody captured via anti-Fc, GFRAL antigen added, then mAbQ injected as analyte (competitor: mAb Q)
T1 construct: Bought soluble protein; also called Human GFRAL with a 6His tag; GFRAL antigen; not shown: 6His tag
T1 sequence: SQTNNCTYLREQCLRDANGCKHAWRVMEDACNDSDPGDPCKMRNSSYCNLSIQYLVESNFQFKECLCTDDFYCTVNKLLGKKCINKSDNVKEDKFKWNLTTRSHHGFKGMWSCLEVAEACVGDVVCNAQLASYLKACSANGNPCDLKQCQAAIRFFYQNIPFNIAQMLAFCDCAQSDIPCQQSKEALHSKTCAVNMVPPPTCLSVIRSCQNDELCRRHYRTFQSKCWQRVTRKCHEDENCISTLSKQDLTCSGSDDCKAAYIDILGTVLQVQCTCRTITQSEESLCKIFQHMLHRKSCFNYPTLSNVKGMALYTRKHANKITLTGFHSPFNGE
Experimental: (§1) In this assay, pairs of antibodies are tested for their ability to simultaneously bind antigen. A first antibody is coupled via its Fc region to a solid support and the GFRAL antigen is added in solution, allowing formation of an antibody-antigen complex. A second antibody is then added in solution.

[2] = molecular target: T1, His-tagged human GFRAL (recombinant …); experiment: SPR sandwich assay: row antibody captured via anti-Fc, GFRAL antigen added, then GDF15 injected as analyte (competitor: GDF15)
Experimental: as §1
The same principle may be used to assess whether an antibody and a native ligand compete for binding to antigen. Thus, a test antibody is coupled to a solid support and the GFRAL antigen is added in solution, allowing formation of an antibody-GFRAL complex. GDF15 is then added in solution.

[3] = molecular target: T2, mouse GFRAL-Fc fusion (R&D catalogue no. 9844-GR-050050) (mouse, UniProt Q6SJE0 20-349); experiment: SPR, KD for mouse GFRAL compared with KD for human GFRAL
T2 construct: Bought fusion protein; not shown: Fc part of the bought fusion
T2 sequence: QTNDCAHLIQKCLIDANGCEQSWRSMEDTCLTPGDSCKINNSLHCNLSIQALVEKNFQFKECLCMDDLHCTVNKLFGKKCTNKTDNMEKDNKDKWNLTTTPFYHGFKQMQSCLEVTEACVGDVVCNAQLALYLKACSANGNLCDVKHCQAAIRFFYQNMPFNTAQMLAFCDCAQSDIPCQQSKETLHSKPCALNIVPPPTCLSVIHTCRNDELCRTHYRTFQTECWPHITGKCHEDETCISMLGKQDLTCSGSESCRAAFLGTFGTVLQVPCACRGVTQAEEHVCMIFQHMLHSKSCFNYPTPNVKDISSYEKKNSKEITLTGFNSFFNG

[4] = molecular target: T2, mouse GFRAL-Fc fusion (R&D catalogue …); experiment: SPR, antibody captured via anti-human Fc, mouse GFRAL-Fc fusion as analyte, method of Example 2
Experimental: (§2) Binding of antibodies to human GFRAL was measured by SPR using His-tagged human GFRAL as analyte, and test antibody coupled to the surface of a CM4 biosensor chip via immobilised anti-human Fc antibody. Running buffer was HBS-P+ buffer pH 7.4 (GE BR100671) with 1 mM CaCl₂. Antibodies were captured for 60 seconds at 1 μg/ml (˜80-140 RU captured, depending on the binder). Analyte (recombinant soluble GFRAL protein, R&D catalogue no. 9647-GR-050) was injected at 100, 25, 6.25, 1.56, 0.39, 0.098, 0.024 and 0 nM for 120 seconds association time at […] and dissociation was monitored for 1200 seconds. The chip surface was regenerated using 10 mM glycine pH 1.5. All experiments were performed at 25° C. Sensorgrams for each antibody were double subtracted (reference cell and 0 concentration). Data were fitted to a 1:1 binding interaction model. Sensorgrams were fitted using multiple cycle kinetics mode. […] FIG. 5.
Affinity for mouse GFRAL was determined by SPR by the same method as in Example 2 using a mouse GFRAL-Fc fusion (R&D catalogue no. 9844-GR-050050) as analyte. FIG. 6.

[5] = molecular target: T1, His-tagged human GFRAL (recombinant …); experiment: SPR, antibody captured via anti-human Fc on CM4 chip, His-tagged human GFRAL as analyte, 25 C, 1:1 model
Experimental: as §2

[6] = molecular target: T3, human GFRAL expressed on the surface of HEK293 cells (co-expressed with human RET) (human, UniProt Q6UXV0 19-394); experiment: cell-based or functional assay
T3 sequence: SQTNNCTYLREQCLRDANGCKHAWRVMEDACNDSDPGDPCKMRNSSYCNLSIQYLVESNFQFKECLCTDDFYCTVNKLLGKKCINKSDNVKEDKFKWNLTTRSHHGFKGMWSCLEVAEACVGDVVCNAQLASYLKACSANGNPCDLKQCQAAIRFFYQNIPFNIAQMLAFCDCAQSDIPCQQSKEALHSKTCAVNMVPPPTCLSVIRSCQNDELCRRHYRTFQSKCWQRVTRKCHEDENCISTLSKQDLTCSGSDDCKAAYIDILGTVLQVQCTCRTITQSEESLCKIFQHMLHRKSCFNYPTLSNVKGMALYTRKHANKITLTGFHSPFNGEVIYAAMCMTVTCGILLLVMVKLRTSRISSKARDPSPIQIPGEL

[7] = molecular target: T3, human GFRAL expressed on the surface of …; experiment: cell-based or functional assay; remark: listed apart in the source
[8] = molecular target: T1, His-tagged human GFRAL (recombinant …); experiment: SPR, KD for human GFRAL of QUEL-0301 compared with reference antibody mAb Q

resonance units after mAbQ injection [1]: 268 resonance units
resonance units after GDF15 injection [2]: 83.9 resonance units
fold difference in affinity, human against mouse GFRAL [3]: ≤ 1.5 fold
Kd [4]: 0.0648 nM
koff [4]: 9.9e-06 s⁻¹
kon [4]: 153000 M⁻¹ s⁻¹
Kd [5]: 0.0839 nM
koff [5]: 6.19e-05 s⁻¹
kon [5]: 738000 M⁻¹ s⁻¹
IC50 (ERK phosphorylation HTRF assay, 4 nM GDF15) [6]: 8.6 nM
B1: QUEL-0201 (antibody, V domains shown)
VH: QVQLVQSGAEVKEPGASVRVSCKASGYTFISHAIHWVRQAPGQRLEWMGWINAVNGNTKYSQKFQDRVTFTRDTSASTAYMDLNSLRAEDTALYYCAREGYTYGVHYSYGMDVWGQGTTVTVSS
VL: QSVLTQPPSVSGAPGQRVTISCTGSSSNIGAGYDVHWYQQLPGTVLKLLIYGNNNRPSGVPDRFSGSNSGTSASLAITGLQPEDEADYYCQSYDSSLSGYWVFGGGTKLTVL
notes: the antibody was captured via anti-human Fc antibody

EC50 (read off the curve) [7]: ~1 nM
B2: recombinant human GDF15 protein with 6-His tag (R&D Systems, 957-GD) (ligand, UniProt Q99988 197-308, looked up)
chain: ARNGDHCPLGPGRCCRLHTVRASLEDLGWADWVLSPREVQVTMCIGACPSQFRAANMHAQIKTSLHRLKPDTVPAPCCVPASYNPMVLIQKTDTGVSLQTYDDLLAKDCHCI

resonance units after mAbQ injection [1]: 298 resonance units
resonance units after GDF15 injection [2]: 77.3 resonance units
fold difference in affinity against mAb Q [8]: ~4 fold
Kd [4]: 4.95 nM
koff [4]: 0.000524 s⁻¹
kon [4]: 106000 M⁻¹ s⁻¹
Kd [5]: 0.000988 nM
koff [5]: 9.72e-06 s⁻¹
kon [5]: 9.83e+06 M⁻¹ s⁻¹
IC50 (ERK phosphorylation HTRF assay, 4 nM GDF15) [6]: 9.4 nM
B3: QUEL-0301 (antibody, V domains shown)
VH: EVQLVESGGGLVQPGGSLRLSCAASGFTFSNSWMNWVRQTPGKGLEWVANIDQDGDQKYYVDSVKGRFTISRDNAKNSLYLQMNSLRAEDTAVYYCAREITGTTFDYWGQGTLVTVSS
VL: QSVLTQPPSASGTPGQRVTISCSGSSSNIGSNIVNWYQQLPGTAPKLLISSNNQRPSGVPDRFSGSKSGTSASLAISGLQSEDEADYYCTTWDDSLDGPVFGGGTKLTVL
notes: as for B1

resonance units after mAbQ injection [1]: 306 resonance units
resonance units after GDF15 injection [2]: 87.3 resonance units
fold difference in affinity, human against mouse GFRAL [3]: ≤ 10 fold
Kd [4]: 1.19 nM
koff [4]: 0.000112 s⁻¹
kon [4]: 93700 M⁻¹ s⁻¹
Kd [5]: 0.14 nM
koff [5]: 7.87e-05 s⁻¹
kon [5]: 561000 M⁻¹ s⁻¹
IC50 (ERK phosphorylation HTRF assay, 4 nM GDF15) [6]: 2.8 nM
B4: QUEL-0101 (antibody, V domains shown)
VH: QVQLVESGGGVVQPGRSLRLSCAASGFAFNNYGMHWVRQGPGRGLEWVAIISYDGTTQYSVDSVKGRFTISRDNSKNTLYLQMNSLRTEDTALYYCAKEAGDFYGSGNYGYHKYGLDVWGQGTTVTVSS
VL: DIQMTQSPSSLSASVGDRVTITCRASQDISNYLAWYQQKPGKIPKLLIYAASTLQSGVPSRFSGSGSGTDFTLTISSLQPEDVASYYCQKYSSAPLTFGGGTKVEIK
notes: as for B1

Source: patent publication US20240182585A1 (CAMBRIDGE ENTERPRISE, published 2024)
